Assay results published in patent US20220332811A1 (NOVAROCK BIOTHERAPEUTICS, published 2022).
Substitutions are numbered along the chain they refer to.

T1: recombinant human IL-23 (p19/p40 heterodimer) (human, UniProt Q9NPF7 20-189; P29460 23-328)
T1 construct: Recombinant protein; for the kinetics R&D Systems 1290-IL/CF; biotinylated for the ELISA; also called hIL23; hIL-23
T1 sequence (looked up) 1: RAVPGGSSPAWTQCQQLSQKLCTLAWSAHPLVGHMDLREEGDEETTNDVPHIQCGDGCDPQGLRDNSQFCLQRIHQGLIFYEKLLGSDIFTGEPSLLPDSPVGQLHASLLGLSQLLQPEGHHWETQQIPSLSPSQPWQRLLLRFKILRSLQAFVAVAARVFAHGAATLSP
T1 sequence (looked up) 2: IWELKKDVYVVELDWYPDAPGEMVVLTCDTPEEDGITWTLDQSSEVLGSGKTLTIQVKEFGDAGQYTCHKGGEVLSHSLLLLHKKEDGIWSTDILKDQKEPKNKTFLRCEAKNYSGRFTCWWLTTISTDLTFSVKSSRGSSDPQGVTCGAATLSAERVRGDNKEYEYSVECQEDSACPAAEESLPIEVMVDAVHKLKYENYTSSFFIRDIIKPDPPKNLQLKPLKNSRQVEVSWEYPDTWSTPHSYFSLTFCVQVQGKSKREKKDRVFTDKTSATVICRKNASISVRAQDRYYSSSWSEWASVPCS

T2: human p40 subunit protein (human, UniProt P29460 23-328)
T2 construct: p40 subunit alone; also called hp40
T2 sequence (looked up): T1 sequence (looked up) 2

T3: human IL-12 protein (human, UniProt P29459 23-219; P29460 23-328)
T3 construct: Recombinant protein; also called hIL12; hIL-12
T3 sequence (looked up) 1: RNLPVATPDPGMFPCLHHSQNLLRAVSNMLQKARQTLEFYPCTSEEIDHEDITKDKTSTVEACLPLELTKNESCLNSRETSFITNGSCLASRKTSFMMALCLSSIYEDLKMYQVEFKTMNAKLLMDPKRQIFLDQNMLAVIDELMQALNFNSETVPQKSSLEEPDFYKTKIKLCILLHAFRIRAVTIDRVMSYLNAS
T3 sequence (looked up) 2: T1 sequence (looked up) 2

B1: Hu-5 18006B (antibody, IgG2b, V domains shown)
VH: QLQLQESGPGLVKPSETLSLTCTVSGGSISSSSFYWGWIRQPPGKGLEWIGSIYYSGSTYYNPSLKSRVTISVDTSKNQFSLKLSSVTAADTAVYFCARHGVRGVIPHFDYWGQGTLVTVSS
VL: QTVLTQEPSFSVSPGGTVTLTCGLNSGSVSTIYYPSWYQQTPGQAPRALIYSTNTRSSGVPDRFSGSILGNKAALTITGAQADDESDYYCVLFLGSGLVFGGGTKLTVL
notes: Purified from hybridoma
B2: Hu-6 18006B* (recombinant mIgG2a) (antibody, V domains shown)
VH: QVQLVQSGAEVKKPGASVKVSCKTSGYTFTYYGISWVRQAPGQGLEWMGLISAYNGNTNYGQKVQGRVTMTTDTSTSTAYMELRSLRSDDTAVYYCVTENINWRDAFDIWGQGTMVTVSS
VL: EIVLTQSPDFQSVTPKEKVTITCRASQTIGSSLHWYQQKPDQSPKLLIKYASQSISGVPSRFSGSGSGTDFTLTINSLEAEDAAAYYCHQSSSLPYTFGQGTKLEIK
B3: Hu-2 18006B (antibody, V domains shown)
VH: QVQLVQSGAEVKKPGASVKVSCKASGYTFTTYGISWVRQAPGQGLEWMGWISAYNGNTKYAQKLQGRVTMTTDTSTSTAYMELRSLRSDDTAVYYCAREWRAFYYYGLDVWGQGTTVTVSS
VL: DIVMTQTPLSSPVTLGQPASISCRSSQSLEHSDGNTYLSWLQQRPNQPPRLLIYKVSNRFSGVPDRFSGSGAGTDFTLKISRVEAEDVGVYYCTQATQFPLTFGGGTKVEIK
notes: Purified from hybridoma (Trianni mice); also called H-2 1800B (mIgG1)
B4: Hu-4 18006B** (recombinant, hIgG4) (antibody, V domains shown)
VH: QVHLVQSGAEVKKPGASVKVSCKASGYTFSSYGINWVRQAPGQGLEWMGWISAYSGNTDYSQHLQGRVTMTTDTSTNTAYMELRSLRSDDTAVYYCARASANWYDYFDPWGQGTLVTVSS
VL: B2 VL with S31G, K49T, I55F, N76H, A85T, S93I
B5: Hu-4 18006B (purified from hybridoma) (antibody, IgG2c, V domains shown)
VH: B4 VH
VL: B2 VL with S31G, K49T, I55F, N76H, A85T, S93I
B6: Hu-4 18006B* (recombinant, mIgG2a) (antibody, V domains shown)
VH: B4 VH
VL: B2 VL with S31G, K49T, I55F, N76H, A85T, S93I
B7: Hu-6 18006B (purified from hybridoma) (antibody, V domains shown)
VH: B2 VH
VL: B2 VL

biological target: T1, recombinant human IL-23 (p19/p40 …); test: SPR (BIAcore 3000); antibody captured on anti-mouse IgG CM5 chip, hIL-23 0.156-40 nM, 1:1 global fit
Description: To ensure accurate measurements of the KD and IC50 endpoints in binding and functional assays, the antibodies were purified from the hybridoma culture supernatants prior to testing. The binding kinetics of the disclosed anti-IL-23p19-specific antibodies to recombinant human IL-23 was determined by Surface plasmon resonance (SPR) using BIAcore 3000 system docked with a CM5 chip previously immobilized via amine coupling chemistry with anti-mouse IgG antibody (GE Cat No. BR-1008-38). Flow cell 1 remained unmodified to serve as a reference cell for subtraction of systematic instrument noise and drift. Fc2-1 detection was run with double blanking (Fc1 and blank analyte buffer). Antibody samples were diluted to 50 μg/mL in HBS-EP (GE, catalog no: BR1001-88) and injected at a flow rate of 10 uL/minute for 1 minute. Next, hIL-23 (R&D systems, catalog no: 1290-IL/CF) diluted to 0.156-40 nM was injected at 50 μL/minute for 2 minutes, followed by 10 minutes dissociation. Data were analyzed in BIAEvalution software (GE Healthcare) by 1:1 binding model with global fit to determine apparent binding kinetics.

| Binder | Kd | koff | kon |
| --- | --- | --- | --- |
| B1 | 0.0662 nM | 9.89e-05 s⁻¹ | 1.49e+06 M⁻¹ s⁻¹ |
| B2 | 0.0384 nM | 0.000171 s⁻¹ | 4.44e+06 M⁻¹ s⁻¹ |
| B3 | 0.0416 nM | 6.54e-05 s⁻¹ | 1.57e+06 M⁻¹ s⁻¹ |

biological target: T1, recombinant human IL-23 (p19/p40 …); test: SPR (BIAcore 3000); captured antibody, hIL-23 0.156-40 nM, 1:1 global fit

| Binder | Kd | koff | kon |
| --- | --- | --- | --- |
| B4 | 0.0572 nM | 0.000143 s⁻¹ | 2.5e+06 M⁻¹ s⁻¹ |

biological target: T2, human p40 subunit protein; test: ELISA; antigen coated directly on plate
Description: (§1) The binding specificity of the disclosed anti-IL-23p19 antibodies were also assessed by ELISA. Briefly, biotinylated IL-23 were captured via streptavidin coated ELISA plates. Human p19/mouse p40, human IL-12 and human p40 subunit were directly coated to ELISA plates. Purified antibodies were then added to the plates followed by detection by goat-anti-mouse IgG-HRP (Jackson ImmunoResearch, catalog no: 115-036-071, LOT NO: 147271). After addition of ABTS substrate (Moss Inc., catalog no: ABTS-1000, LOT NO: 03086202), ELISA plates were read using an ELISA plate reader (Biotek). The controls depicted in FIG. 3: PC1 refers to a reference antibody (known to be a p19 specific antibody, Biointron, LOT NO:20180926A04); PC2 refers to a reference antibody (known to be a p40 specific antibody, Biointron, LOT NO: 20180925A07); PC3 refers to a reference antibody (MT155, known as a p19 specific antibody from Mabtech, catalog no: 3457-6-100, code: 3457-6-1000), the negative controls are human IgG4 (Dendritics, catalog no: DDXCHO4P-100, LOT NO: DDXCH04-028) and the mouse IgG2a (generated by Novarock Biotherapeutics).

| Binder | binding result |
| --- | --- |
| B5 | no binding |

biological target: T3, human IL-12 protein; test: ELISA; antigen coated directly on plate
Description: as §1

| Binder | binding result |
| --- | --- |
| B5 | no binding |

biological target: T2, human p40 subunit protein; test: SPR (BIAcore); antibody captured on anti-Fc chip, antigen injected
Description: (§2) Binding of anti-IL-23p19-specific antibodies to IL-23 proteins was analyzed by Surface plasmon resonance (SPR) determined by BIAcore. Briefly, serial dilutions of the anti-IL-23p19 antibodies or the control antibodies were captured on an anti-mouse or human Fc chip (s) that were immobilized on the CM5 chip using amine coupling kit (GE Healthcare, Catalog NO: BR-1000-50, LOT NO: 2087295).
(§3) Next, serial dilutions of IL-23 recombinant protein, human p19/mouse p40 heterodimer protein, human IL-12 protein and human p40 subunit protein in the running buffer containing 10 mM HEPES, 150 mM NaCl, 3 mM EDTA, 0.005% Tween 20, pH 7.4, were injected at 50 μl/minute over immobilized antibody for 1 minute followed by 2 minutes dissociation. Each injection was followed by a regeneration step with a 60-second pulse of 10 mM Glycine-HCl, pH 1.7 buffer. Fitting of experimental data was done with BIAevaluation software (GE Healthcare), fit with a Langmuir 1:1 model to determine apparent binding.

| Binder | binding result |
| --- | --- |
| B1 | no binding |
| B2 | no binding |
| B6 | no binding |
| B4 | no binding |
| B3 | no binding |

biological target: T3, human IL-12 protein; test: as above
Description: as §2, §3

| Binder | binding result |
| --- | --- |
| B1 | no binding |
| B2 | no binding |
| B6 | no binding |
| B4 | no binding |
| B3 | no binding |

biological target: T1, recombinant human IL-23 (p19/p40 …); test: cell-based or functional assay

| Binder | IC50 pM, STAT3 activation in DB reporter cells | Top % of inhibition, STAT3 activation in DB reporter cells |
| --- | --- | --- |
| B1 | 226 pM | 99% |
| B7 | 60.5 pM | 99% |
| B2 | 35.2 pM | 99% |
| B6 | 265 pM | 100% |
| B4 | 157 pM | 100% |
| B3 | 158 pM | 97% |
| B5 | 168 pM | 99% |
